T1: Recombinant human BMPRII/Fc chimera protein (human, UniProt Q13873 27-150)
T1 sequence: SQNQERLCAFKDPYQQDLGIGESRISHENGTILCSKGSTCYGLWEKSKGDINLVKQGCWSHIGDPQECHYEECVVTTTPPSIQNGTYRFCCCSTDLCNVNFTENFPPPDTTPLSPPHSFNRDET


Key:
cross-linking + co-IP = target: the molecule itself; assay: cross-linking + co-IP
[1] = target: T1, Recombinant human BMPRII/Fc chimera …; assay: SPR

Row | Kd [1] [nM] | Binder | stoichiometry N (cross-linking + co-IP)
1 |  | 125I-labeled recombinant human BMP4 (ligand, 125I (radioiodinated, Chloramine T method)) SPKHHSQRARKKNKNCRRHSLYVDFSDVGWNDWIVAPPGYQAFYCHGDCPFPLADHLNSTNHAIVQTLVNSVNSSIPKACCVPTELSAISMLYLDEYDKVVLKNYQEMVVEGCGCR | 2
2 | 164 | Recombinant human BMP2 (bone morphogenetic protein 2) (ligand) QAKHKQRKRLKSSCKRHPLYVDFSDVGWNDWIVAPPGYHAFYCHGECPFPLADHLNSTNHAIVQTLVNSVNSKIPKACCVPTELSAISMLYLDENEKVVLKNYQDMVVEGCGCR | 
